Data as given in the supplement of paper PMC9732359.
± gives the uncertainty stated by the source.

Assay: protein stability index of a GFP-peptide fusion (yeast GPS) (PSI 1-4); higher = more stable; sorted into four equal gates, so the index is relative within each strain
Procedure, shortened: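 The protein stability index combines read frequencies across sorting gates, each weighted by its gate number and then summed. To obtain those frequencies, a pooled yeast library of GFP fusions to tiled 17-residue yeast protein peptides, on a plasmid also expressing Cherry, was grown to mid-log phase in leucine-free medium. The cells were sorted into four equal gates by GFP/Cherry ratio before plasmid amplification by PCR and Illumina sequencing.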

Sequence	protein stability index (doa10∆)	protein stability index (pdr5∆)	protein stability index (san1∆)	protein stability index (ubr1∆)
ENTPEPDLPALEASYSK [SMC4]	2.36 ± 0.12	2.61 ± 0.091	3.18 ± 0.068	2.99 ± 0.12
DEDLHEFQIEDAIWSLV [SRB8]	3.4 ± 0.13	2.96 ± 0.086	2.88 ± 0.14	3.3 ± 0.26
REIVMPAHTKYMLIEEA [ITC1]	3.2 ± 0.1	3.42 ± 0.1	3.03 ± 0.071	3.31 ± 0.13
IKFGGLIIQKIPSLQNN [ECM29]	1.83 ± 0.066	1.72 ± 0.066	1.5 ± 0.064	1.83 ± 0.062
ARVLSNYLRQQCNYSSL [PRE5]	2.71 ± 0.17	2.96 ± 0.11	–	2.78 ± 0.087
IQHIAAAMVPFIKFKLI [CDC53]	2.42 ± 0.048	2.42 ± 0.043	2.42 ± 0.056	2.43 ± 0.048
STKKDTVQLTFLIDVLK [YCG1]	2.38 ± 0.096	2.72 ± 0.068	2.47 ± 0.078	2.81 ± 0.068
DFSIRKTCAKSVIQLCG [ECM29]	1.84 ± 0.12	1.91 ± 0.13	2.05 ± 0.22	–
AMDRAHRIGQKKQVHVY [ISW2]	2.71 ± 0.095	2.75 ± 0.078	2.84 ± 0.085	2.66 ± 0.074
SFQLSKIRRAARDLLTR [RPS9A]	2.06 ± 0.044	2.24 ± 0.044	2.21 ± 0.045	1.98 ± 0.032
MLQMKGKLLRNYTQNID [SIR2]	2.91 ± 0.076	2.36 ± 0.11	2.78 ± 0.086	2.02 ± 0.058
SKSDSDSEERDPKLEKC [ITC1]	3 ± 0.14	2.97 ± 0.13	2.62 ± 0.11	1.84 ± 0.058
IEATDLGNIASSFYINH [BRR2]	3 ± 0.085	3.04 ± 0.1	3.12 ± 0.078	3.3 ± 0.072
SLPEGLLKSLWDYVKKN [TAF14]	3.01 ± 0.17	2.02 ± 0.079	–	3.13 ± 0.093
VKVNHNEKRYATASAIA [RPL4A]	2.29 ± 0.1	2.62 ± 0.11	2.1 ± 0.12	2.18 ± 0.067
NLQQQQQQQIQVPLQQT [YGR119C/NUP57]	2.56 ± 0.13	2.76 ± 0.078	2.16 ± 0.18	3.03 ± 0.11
VRATFRNNLPAKTFGAS [RPL33A]	2.85 ± 0.097	3.05 ± 0.16	3.2 ± 0.11	3.31 ± 0.098
EEEVDIDMDKLNTVLIA [RRP43]	3.35 ± 0.091	3.32 ± 0.095	3.02 ± 0.077	2.89 ± 0.068
TIGKRRTTTNTTAEPKA [TAF14]	3.07 ± 0.064	3.26 ± 0.042	3.15 ± 0.045	3.2 ± 0.05
NSEKFVFLLTTRAGGLG [ISW2]	1.67 ± 0.26	1.4 ± 0.13	1.11 ± 0.11	1.51 ± 0.12
ALIENKKAKLVLIANDV [RPL8A]	2.76 ± 0.1	2.51 ± 0.093	2.56 ± 0.12	2.46 ± 0.12
KEEFSSDESIERLMTWK [RRI2]	2.49 ± 0.08	2.77 ± 0.076	2.55 ± 0.11	2.43 ± 0.17
VSNISCLTGTVAARMFH [ECM29]	1.66 ± 0.042	1.59 ± 0.039	2.28 ± 0.087	2.19 ± 0.045
PRLDAQAIKEASYVNIP [RPS0B]	2.88 ± 0.041	2.84 ± 0.039	2.79 ± 0.044	2.52 ± 0.031
RSLGLQQVVCIFSYGPH [POP6]	1.51 ± 0.028	1.7 ± 0.037	1.57 ± 0.049	1.64 ± 0.026
YLKFIPLKRAIWLIKCC [SRB8]	2.51 ± 0.095	1.86 ± 0.069	2.19 ± 0.16	2.16 ± 0.057

Sequence	protein stability index (doa10∆)	protein stability index (pdr5∆)	protein stability index (san1∆)	protein stability index (ubr1∆)
SKLAEEKIRAAGGVVEL [RPL28]	2.85 ± 0.04	3.08 ± 0.034	3.09 ± 0.037	2.943 ± 0.025
VLQDLRLGSKKLVEIIW [YJL039C/NUP192]	3.25 ± 0.1	3.09 ± 0.16	3.15 ± 0.068	3.39 ± 0.14
IRPDGRLPHQFRPIEIF [RRP42]	1.84 ± 0.087	1.94 ± 0.084	1.35 ± 0.12	2.16 ± 0.073
YQELIKNGALVSNILSA [YJL039C/NUP192]	1.76 ± 0.072	2.2 ± 0.057	1.82 ± 0.075	2.09 ± 0.062
QLTVCGAIIGWTRGTGL [FAS2]	1.26 ± 0.079	1.18 ± 0.067	1.09 ± 0.23	1.3 ± 0.085
IAFLVGLVNPKTVQSMT [SWI3]	2.46 ± 0.068	2.02 ± 0.059	2.11 ± 0.07	2.56 ± 0.041
PTVNRVPNYEVSEKAFL [RPN7]	1.14 ± 0.12	1.68 ± 0.1	1.79 ± 0.22	1.18 ± 0.17
TLISRISSLFTITTILI [YML103C/NUP188]	1.63 ± 0.068	1.8 ± 0.066	1.37 ± 0.088	2.02 ± 0.11
TIDNIDSENFSFEKLYE [YMR129W/POM152]	3.3 ± 0.085	3.26 ± 0.076	3.33 ± 0.074	3.17 ± 0.047
NDWKLETERLISQSQLG [SIN4]	3.42 ± 0.096	3.11 ± 0.14	3.3 ± 0.068	3.53 ± 0.19
KDQDSQIELSCNERVPL [SRP72]	3.08 ± 0.08	3.12 ± 0.097	2.83 ± 0.056	3.01 ± 0.059
EDEAALAKLVSTIDANF [RPL8A]	2.91 ± 0.065	3.02 ± 0.068	2.66 ± 0.062	2.85 ± 0.05
MAESTTLETIEIHPITF [RRP43]	3.04 ± 0.073	2.58 ± 0.047	3.06 ± 0.044	2.68 ± 0.04
SVGVIINKMVGNRYLEK [RPL21A]	3.01 ± 0.14	3.35 ± 0.13	2.43 ± 0.2	3 ± 0.095
LQLLPLQKAVRGHVLQF [SNF2]	1.22 ± 0.029	1.29 ± 0.041	1.23 ± 0.081	1.16 ± 0.026
SKDEPVSKAVESKSLLN [SIR4]	2.39 ± 0.097	2.82 ± 0.091	1.37 ± 0.12	1.86 ± 0.097
AHTAGRYANKRFRKAQC [RPS5]	2.29 ± 0.22	2.92 ± 0.18	–	–
PQNGNINNNINIPQQQQ [GAL11]	3.32 ± 0.095	3.02 ± 0.12	3.21 ± 0.082	2.97 ± 0.077
GISINNMMEHWDYLQLT [RPO31]	2.84 ± 0.087	2.81 ± 0.073	2.8 ± 0.14	2.65 ± 0.065
LTIGVKFFMKHGLILEL [SRB5]	1.71 ± 0.05	1.62 ± 0.052	1.65 ± 0.062	1.94 ± 0.033
CDQTKSVPLMINAKNIA [RRP43]	1.74 ± 0.061	2.21 ± 0.078	1.53 ± 0.11	1.61 ± 0.068
ITKVPALEFLNTTLQDN [REC8]	2.77 ± 0.08	2.7 ± 0.15	2.98 ± 0.12	2.71 ± 0.084
LNPQVADINKNFLSVIT [RPN2]	1.81 ± 0.065	2.19 ± 0.053	1.98 ± 0.071	1.95 ± 0.053
NITDNLFQELSKVVDDM [GRR1]	2.69 ± 0.067	2.62 ± 0.083	2.28 ± 0.07	2.81 ± 0.098
TISECNLYDDVKCWSKF [MED1]	2.27 ± 0.093	2.34 ± 0.2	3.38 ± 0.071	3.14 ± 0.12
